Data taken from article PMC13065503.
pKd: −log10 of the molar value.

Target: ArtiMYC (3) (UniProt P01106)
Assay: EMSA
Conditions: EMSA: 20 mM HEPES pH 8.0, 150 mM NaCl, 5% glycerol, 1 mM EDTA, 2 mM MgCl2, 0.5 mg/mL BSA, 1 mM DTT, 0.05% NP-40; 4 nM DNA; 30 min RT then 15 min on ice; 10% …

ArtiMYC (3), sequence (P01106 365-454): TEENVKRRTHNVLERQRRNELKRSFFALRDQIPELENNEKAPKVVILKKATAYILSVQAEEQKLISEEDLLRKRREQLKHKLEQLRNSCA

Sequence: ACCCCACCACGTGGTGCCT (double strand) [E-box DNA]
- pKd: 7.62
